Broadly, the Kd is a measure of binding affinity in units of concentration. Read a high Kd as lower affinity. In general, koff refers to the first-order rate constant of dissociation. A high value points to a short-lived complex. As usually defined, the kon is a measure of how fast the partners come together. Low readings indicate slow association, high ones fast association.

Like-named read-outs stand apart in the source and are kept apart here.

The source of these data is patent publication US20160130315A1 (AJOU UNIVERSITY INDUSTRY ACADEMIC COOPERATION FOUNDATION, published 2016).

T1: Sema3F (19-779) (UniProt Q13275 19-779)
T1 construct: range 19-779; Control ligand; Biotinylated in the ELISA; also called Semaphorin 3F
T1 sequence (looked up): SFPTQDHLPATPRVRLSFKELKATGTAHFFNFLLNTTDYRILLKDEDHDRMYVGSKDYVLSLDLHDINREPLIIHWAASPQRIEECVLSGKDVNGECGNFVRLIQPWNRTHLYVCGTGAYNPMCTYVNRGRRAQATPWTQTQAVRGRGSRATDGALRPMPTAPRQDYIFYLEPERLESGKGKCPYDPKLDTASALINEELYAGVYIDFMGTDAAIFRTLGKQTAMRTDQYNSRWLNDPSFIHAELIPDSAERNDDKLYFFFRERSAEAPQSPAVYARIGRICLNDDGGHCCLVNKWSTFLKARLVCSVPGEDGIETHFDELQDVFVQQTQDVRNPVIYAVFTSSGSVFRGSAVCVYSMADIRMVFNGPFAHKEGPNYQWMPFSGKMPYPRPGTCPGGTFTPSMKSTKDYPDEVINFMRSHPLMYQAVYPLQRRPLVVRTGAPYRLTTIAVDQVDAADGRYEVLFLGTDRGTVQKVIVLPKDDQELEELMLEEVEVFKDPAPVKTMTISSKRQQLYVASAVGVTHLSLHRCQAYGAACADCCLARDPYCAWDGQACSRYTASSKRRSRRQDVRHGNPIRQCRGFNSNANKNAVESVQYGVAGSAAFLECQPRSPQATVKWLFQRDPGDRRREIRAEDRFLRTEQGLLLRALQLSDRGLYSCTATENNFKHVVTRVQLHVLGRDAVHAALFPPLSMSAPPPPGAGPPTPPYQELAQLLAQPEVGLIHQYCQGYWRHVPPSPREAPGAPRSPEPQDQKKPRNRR

B1: b1b2 domains (275-595) of neuropilin-2 (receptor, UniProt O60462 275-595, looked up)
chain: FQCNVPLGMESGRIANEQISASSTYSDGRWTPQQSRLHGDDNGWTPNLDSNKEYLQVDLRFLTMLTAIATQGAISRETQNGYYVKSYKLEVSTNGEDWMVYRHGKNHKVFQANNDATEVVLNKLHAPLLTRFVRIRPQTWHSGIALRLELFGCRVTDAPCSNMLGMLSGLIADSQISASSTQEYLWSPSAARLVSSRSGWFPRIPQAQPGEEWLQVDLGTPKTVKGVIIQGARGGDSITAVEARAFVRKFKVSYSLNGKDWEYIQDPRTQQPKLFEGNMHYDTPDIRRFDPIPAQYVRVYPERWSPAGIGMRLEVLGCDWT
notes: range 275-595; Purified soluble domain; also called NRP2-b1b2; NRP-2 b1b2
B2: b1b2 domains (273-586) of neuropilin-1 (receptor, UniProt O14786 273-586, looked up)
chain: FKCMEALGMESGEIHSDQITASSQYSTNWSAERSRLNYPENGWTPGEDSYREWIQVDLGLLRFVTAVGTQGAISKETKKKYYVKTYKIDVSSNGEDWITIKEGNKPVLFQGNTNPTDVVVAVFPKPLITRFVRIKPATWETGISMRFEVYGCKITDYPCSGMLGMVSGLISDSQITSSNQGDRNWMPENIRLVTSRSGWALPPAPHSYINEWLQIDLGEEKIVRGIIIQGGKHRENKVFMRKFKIGYSNNGSDWKMIMDDSKRKAKSFEGNNNYDTPELRTFPALSTRFIRIYPERATHGGLGLRMELLGCEVE
notes: range 273-586; Purified soluble domain; No tag described; also called NRP1-b1b2; NRP-1 b1b2
B3: Sema3A (26-760) (ligand, UniProt Q14563 26-760, looked up)
chain: KNNVPRLKLSYKEMLESNNVITFNGLANSSSYHTFLLDEERSRLYVGAKDHIFSFDLVNIKDFQKIVWPVSYTRRDECKWAGKDILKECANFIKVLKAYNQTHLYACGTGAFHPICTYIEIGHHPEDNIFKLENSHFENGRGKSPYDPKLLTASLLIDGELYSGTAADFMGRDFAIFRTLGHHHPIRTEQHDSRWLNDPKFISAHLISESDNPEDDKVYFFFRENAIDGEHSGKATHARIGQICKNDFGGHRSLVNKWTTFLKARLICSVPGPNGIDTHFDELQDVFLMNFKDPKNPVVYGVFTTSSNIFKGSAVCMYSMSDVRRVFLGPYAHRDGPNYQWVPYQGRVPYPRPGTCPSKTFGGFDSTKDLPDDVITFARSHPAMYNPVFPMNNRPIVIKTDVNYQFTQIVVDRVDAEDGQYDVMFIGTDVGTVLKVVSIPKETWYDLEEVLLEEMTVFREPTAISAMELSTKQQQLYIGSTAGVAQLPLHRCDIYGKACAECCLARDPYCAWDGSACSRYFPTAKRRTRRQDIRNGDPLTHCSDLHHDNHHGHSPEERIIYGVENSSTFLECSPKSQRALVYWQFQRRNEERKEEIRVDDHIIRTDQGLLLRSLQQKDSGNYLCHAVEHGFIQTLLKVTLEVIDTEHLEELLHKDDDGDGSKTKEMSNSMTPSQKVWYRDFMQLINHPNLNTMDEFCEQVWKRDRKQRRQRPGHTPGNSNKWKHLQENKKGRNRR
notes: range 26-760; Control ligand; Biotinylated in the ELISA; also called Semaphorin3A; Semaphorin 3A
B4: VEGF165A (ligand, UniProt P15692-4 27-191, looked up)
chain: APMAEGGGQNHHEVVKFMDVYQRSYCHPIETLVDIFQEYPDEIEYIFKPSCVPLMRCGGCCNDEGLECVPTEESNITMQIMRIKPHQGQHIGEMSFLQHNKCECRPKKDRARQENPCGPCSERRKHLFVQDPQTCKCSCKNTDSRCKARQLELNERTCRCDKPRR
notes: Control ligand; biotinylated in the ELISA; also called vascular endothelial cell growth factor-A

One assay has as its target T1, Sema3F (19-779). Kind of assay: SPR Biacore 2000, NRP b1b2 on CM5 chip. How it is done: (§1) Specifically, each b1b2 domain of neuropilin-1 and -2 was diluted with 10 mM Na-acetate buffer (pH 4.0), and fixed onto CM5 sensor chips (GE healthcare, USA) in about 1000 response units (RU). […] After bond and dissociation analysis, the regeneration of CM5 chip was performed by streaming a buffer (20 Mm NaOH, 1 M NaCl, pH 10.0) at a stream velocity 30 μl/min for 1 minute.
For orientation: In SPR one partner is held on a chip, and binding of the other changes the refractive index at the surface.

The target in the assay “Sema3A (26-760)” is B3. As to the kind of experiment: SPR Biacore 2000, NRP b1b2 on CM5 chip.
Assay [1] deals with B2. Kind of assay: competition ELISA on plate-bound NRP1-b1b2: Sema3A titrated against Fc-15F22P (30 nM), absorbance at 405 nm [right panel Fc-15F22P]. How it is done:
(§2) Specifically, b1b2 domains (273-586) of neuropilin-1 and b1b2 domains (275-595) of neuropilin-2 were bound in 96-well EIA/RIA plates (COSTAR Corning In., USA) at room temperature for 1 hour, and then washed three times for 10 minutes with 0.1% PBST (0.1% Tween20, pH 7.4, 137 mM NaCl, 10 mM Phosphate, 2.7 mM KCl, SIGMA-ALDRICH co., USA). After binding for 1 hour with 5% skim milk (pH 7.4, 137 mM NaCl, 10 mM Phosphate, 2.7 mM KCl, SIGMA-ALDRICH co., USA), it was washed three times for 10 minutes with 0.1% PBST (0.1% Tween20, pH 7.4, 137 mM NaCl, 10 mM Phosphate, 2.7 mM KCl, SIGMA-ALDRICH co., USA).
A general note: ELISA stands for enzyme-linked immunosorbent assay.

Assay [2] deals with B2. As to the kind of experiment: competition ELISA on plate-bound NRP1-b1b2: Sema3A titrated against Fc-15A22P (30 nM), absorbance at 405 nm [left panel Fc-15A22P]. How it is done:
as §2

Assay [3] deals with B2. As to the kind of experiment: SPR Biacore 2000, NRP b1b2 on CM5 chip. As for the experimental part:
as §1

Assay [4] addresses B1. As to the kind of experiment: SPR Biacore 2000, NRP b1b2 on CM5 chip. As for the experimental part:
as §1

In assay [5] the target is B2. As to the kind of experiment: SPR Biacore 2000, NRP b1b2 on CM5 chip. As for the experimental part: as §1
The source holds these as a separate data set.

Assay [6] deals with B1. Kind of assay: SPR Biacore 2000, NRP b1b2 on CM5 chip. How it is done:
as §1
The source holds these as a separate data set.

Assay [7] concerns the target B2. Kind of assay: competition ELISA on plate-bound NRP1-b1b2: VEGF165 titrated against Fc-15F22P (30 nM), absorbance at 405 nm [right panel Fc-15F22P]. How it is done:
as §2

Assay [8] deals with B2. As to the kind of experiment: competition ELISA on plate-bound NRP1-b1b2: VEGF165 titrated against Fc-15A22P (30 nM), absorbance at 405 nm [left panel Fc-15A22P]. How it is done: as §2

In the assay with Sema3F (19-779), B1 returned a Kd of 345 nM, a koff of 0.0015 s⁻¹ and a kon of 4340 M⁻¹ s⁻¹. Also, in the assay with Sema3A (26-760), the Kd came to 231 nM, the koff is 0.00161 s⁻¹ and the kon turned out to be 6960 M⁻¹ s⁻¹.
In the assay with Sema3F (19-779), B2 came in with a Kd of 245 nM, an off-rate constant (koff) of 0.000973 s⁻¹ and a kon of 3980 M⁻¹ s⁻¹. In the assay with Sema3A (26-760), the dissociation constant (Kd) stood at 27.9 nM, the off-rate (koff) is 0.000808 s⁻¹ and the kon worked out at 28900 M⁻¹ s⁻¹.
As for B3, the “IC50 (read off the curve)” value in assay [1] and in assay [2] was around 20 nM throughout.
In the case of B4, the Kd in [3] turned out to be 3.51 nM; in assay [4], 32 nM; in [5], 3.51 nM; in assay [6], 32 nM. Further, the dissociation rate constant (koff) was 0.00342 s⁻¹ in assay [3], 0.00373 s⁻¹ in assay [4], 0.00342 s⁻¹ in assay [5] and 0.00373 s⁻¹ in [6]. For the same molecule, the kon amounted to 975000 M⁻¹ s⁻¹ in assay [3], 117000 M⁻¹ s⁻¹ in assay [4], 975000 M⁻¹ s⁻¹ in assay [5] and 117000 M⁻¹ s⁻¹ in assay [6]. Besides, the figures for the “IC50 (read off the curve)” value in [7] and in assay [8] were around 2 nM and around 3 nM, respectively.
